Results reported in PMC9812398.

Key:
[1] = molecular target: stabilized microtubules polymerized from cow brain tubulin (cow) (UniProt Q6B856); assay: TIRF microscopy of microtubule end decoration
[2] = molecular target: human full-length GFP-CLASP2α (human) (UniProt O75122); assay: TIRF microscopy of microtubules on DNA origami-clustered protein

| Molecule | end brightness [1] | time for which half of the microtubules keep end association [2] |
| --- | --- | --- |
| human full-length GFP-CLASP2α (from UniProt O75122-3 1-1515) (natural protein) | 594 a.u. |  |
| stabilized microtubules polymerized from cow brain tubulin (from UniProt Q6B856 1-445) (complex) |  | 4 h |
| GFP-L-TOG2-S (domain or fragment) KVPAPKTSGNPANSARKPGSAGGPKVGAGASKEGGAGAVDEDDFIKAFTDVPSIQIYSSRELEETLNKIREILSDDKHDWDQRANALKKIRSLLVAGAAQYDCFFQHLRLLDGALKLSAKDLRSQVVREACITVAHLSTVLGNKFDHGAEAIVPTLFNLVPNSAKVMATSGCAAIRFIIRHTHVPRLIPLITSNCTSKSVPVRRRSFEFLDLLLQEWQTHSLERHAAVLVETIKKGIHDADAEARVEARKTYMGLRNHFPGEAETLYNSLEPSYQKSLQTYLKSSGSVASLPQSDRSSSSSQESLNRPFSSKWSTANPSTVAGRVSAGSSKASSLPGSLQRSRSDIDVNAAAGAKAHHAAGQSVRSGRLGAGALNAGSYASLEDTSDKLDGTASEDGRVRAKLSAPLAGMGNAKADSRGRSRTKMVSQSQPGSRSGSPGRVLTTTALSTVSSGVQRVLVNSASAQKRSKIPRSQGCSREASPSRLSVARSSRIPRPSVSQGCSREASRESSRDTSPVRSFQPLGPGYGISQSS | 757 a.u. |  |
